Experimental data as given in paper PMC3234718.

B1: procollagen C-proteinase enhancer-1 (PCPE-1) (natural protein)
chain: QTPNYTRPVFLCGGDVKGESGYVASEGFPNLYPPNKECIWTITVPEGQTVSLSFRVFDLELHPACRYDALEVFAGSGTSGQRLGRFCGTFRPAPLVAPGNQVTLRMTTDEGTGGRGFLLWYSGRATSGTEHQFCGGRLEKAQGTLTTPNWPESDYPPGISCSWHIIAPPDQVIALTFEKFDLEPDTYCRYDSVSVFNGAVSDDSRRLGKFCGDAVPGSISSEGNELLVQFVSDLSVTADGFSASYKTLPRGTAKEGQGPGPKRGTEPKVKLPPKSQPPEKTEESPSAPDAPTCPKQCRRTGTLQSNFCASSLVVTATVKSMVREPGEGLAVTVSLIGAYKTGGLDLPSPPTGASLKFYVPCKQCPPMKKGVSYLLMGQVEENRGPVLPPESFVVLHRPNQDQILTNLSKRKCPSQPVRAAASQD

Key:
Test in all cases: SPR
[1] = biological target: C-propeptide trimer of human procollagen III (CPIII) (human) (UniProt P02461)
CPIII-His (human) = CPIII-His (human) (UniProt P02461)
[2] = biological target: mini-procollagen III N306Q (human)

Molecule	KD(1) (heterogeneous ligand model, site 1) [1] [µM]	KD(2) (heterogeneous ligand model, site 2) [1] [µM]	KD(1) (heterogeneous ligand model, site 1) (CPIII-His (human)) [µM]	KD(2) (heterogeneous ligand model, site 2) (CPIII-His (human)) [µM]	KD(1) (heterogeneous ligand model, site 1) [2] [µM]	KD(2) (heterogeneous ligand model, site 2) [2] [µM]
CUB1-CUB2 (minimal active fragment of PCPE-1) (domain or fragment)	0.0046	0.028	0.0128	0.027	0.00074	0.0126
B1	0.0047	0.017	0.0059	0.015	0.00066	0.01
